The target of this data set is CMK-inhibited FVII (human Factor VII treated with a 'Phe-Pro-Arg' peptide based chloromethylketone inhibitor) (UniProt P08709).

Here are results for 1 substance from patent publication US20120178693A1.

UniProt P08709, sequence (P08709 61-466): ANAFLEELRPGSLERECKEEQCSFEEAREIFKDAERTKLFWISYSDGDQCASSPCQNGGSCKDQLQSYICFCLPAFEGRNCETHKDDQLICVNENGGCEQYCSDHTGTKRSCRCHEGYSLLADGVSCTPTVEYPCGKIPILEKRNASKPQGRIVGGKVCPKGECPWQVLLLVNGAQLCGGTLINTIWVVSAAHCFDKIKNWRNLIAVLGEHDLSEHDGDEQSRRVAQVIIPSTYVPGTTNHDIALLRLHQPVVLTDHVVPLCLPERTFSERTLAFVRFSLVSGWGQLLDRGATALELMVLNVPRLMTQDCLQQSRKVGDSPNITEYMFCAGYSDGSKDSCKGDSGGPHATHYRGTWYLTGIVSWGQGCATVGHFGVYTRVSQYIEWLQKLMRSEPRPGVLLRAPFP

Regarding thrombin, the “activation of FVII by thrombin (rate of hydrolysis of the chromogenic substrate Chromozym-tPA)” value is “a low activation of FVII by thrombin was measured”.
